Reference: patent US6919309B2, “Methods and compositions for inhibiting angiogenesis” (Northwestern University, priority 1997, dated 2005)

Assays:
[1] = system: WI-38 fibroblasts, human foreskin fibroblasts, vascular smooth muscle cells, human neutrophils; experiment: Migration assay with non-endothelial cells; type: cell-based; conditions: PEDF 0.01 nM to about 50 nM; inducers IL-8 or PDGF; FIGS. 2A-2D
Description: The ability of PEDF to prevent migration of fibroblasts or smooth muscle was tested using cells obtained from human diploid fibroblast cell line WI-38, human foreskin fibroblasts, vascular smooth muscle, and normal human neutrophils.
The assay was performed as indicated in Example 1, except that the dose of PEDF varied from 0.01 nM to about 50 nM and that the migration assay was performed without inverting the chambers. Moreover, the inducer of migration varied with the cell type (IL-8 was used at 1 μg/ml and PDGF was used at 250 pg/ml).

[2] = system: endothelial cells isolated from human umbilical chords; experiment: Endothelial cell migration assay, endothelial cells from human umbilical chords; type: cell-based; conditions: 10 ng/ml bFGF plus PEDF; FIG. 1
Description: The migration of different vascular endothelial cell types was determined by adding PEDF to cultured endothelial cells, specifically, endothelial cells isolated from bovine adrenal capillaries, human umbilical chords, and human dermal microvascular tissue.
The cells were plated on gelatinized Nucleopore membranes (5 μm pores for bovine capillary cells and 8 μm pores for other cells) in an inverted modified Boyden chamber. After two hours, the chamber was reinverted and test substances added to the top wells of each. Specifically, populations were exposed to either culture medium alone (control), 10 ng/ml bFGF, 2 nM PEDF (full length PEDF), or both 10 ng/ml bFGF (basic fibroblast growth factor) and 10 nM PEDF. The cells were then permitted to migrate for 3-4 hours. Following this, the membranes were fixed and stained, and the number of cells that had migrated were counted.

[3] = system: avascular rat cornea; experiment: Rat cornea neovascularization assay (implanted pellets); type: in vivo
Description: FIG. 13, comprising FIGS. 13A and 13B, is a table and a series of images of photomicrographs depicting inhibition of neovascularization by purified PEDF and by PEDF present naturally in normal human vitreous and cornea. FIG. 13A: Recombinant (rPEDF) or purified (pPEDF) PEDF (8 nM), PEDF peptide 327 to 343 (299 μg/ml), undiluted vitreous fluid, or corneal extract (used at 200 μg of protein per milliliter) was incorporated with vehicle (PBS) and the indicated additions into Hydron pellets that were implanted into the avascular rat cornea. Vigorous ingrowth of vessels from the limbus toward the pellet by 7 days was scored as a positive response (Polverini, et al, 1991, Methods Enzymol 198:440). Where noted, anti-PEDF linked to protein A beads was used to remove PEDF from vitreous fluid and corneal extract. FIG. 13B, comprising FIGS. 13B-1 through 13B-8: Representative photos of corneal responses from FIG. 13A shown at X13 magnification. PEDF antipeptide antibody (anti-PEDF) was raised in rabbits against a peptide containing pEDF amino acids 327-343, conjugated to Keyhole-limpet hemocyanin, and affinity-purified on a peptide column. Polyclonal antisera against bacterial recombinant PEDF/EPC-1 (anti-EPC-1) is described in DePaolo, et al. (1995, Exp. Cell Res. 220:178) and the antiangiogenic protein angiostatin is descried in O'Reilly, et al. ([…], Cell 79:315). Purchased reagents included neutralizing anti-VEGF (Genzyme Cambridge, Mass.), pan antibodies to TGFβ, and all angiogenic inducers (R&D Systems, Minneapolis, Minn.) except lysophosphatidic acid (Sigma). All proteins and antibodies were extensively dialyzed against PBS before use in biological assays. FIG. 13B-1 corresponds to sample 2 of FIG. 13A; FIG. 13B-2 corresponds to sample 12 of FIG. 13A, FIG. 13B-3 corresponds to sample 3 of FIG. 13A; FIG. 13B-4 corresponds to sample 11 of FIG. 13A; FIG. 13B-5 corresponds to sample 8 of FIG. 13A; FIG. 13B-6 corresponds to sample 16 of FIG. 13A; FIG. 13B-7 corresponds to sample 6 of FIG. 13A; FIG. 13B-8 corresponds to sample 17 of FIG. 13A. […]

[4] = system: SK-N-BE(2) and SK-N-SH neuroblastoma cells; experiment: Differentiation of cultured human neuroblastoma cells (neurite outgrowth); type: cell-based; conditions: in vitro, 24 hours, purified histidine tagged PEDF; FIGS. 9, 10
Description: In vitro experiments were conducted to verify the effect of PEDF on cell lines derived from neuroblastoma tumors. Two neuroblastoma derived cell lines were obtained from the American Tissue Type and Culture, SK-N-BE(2) and SK-N-SH. Both cell lines were maintained in culture in DMEM containing 10% fetal bovine serum (Flow Laboratories, McLean, Va.) in 37° C. and 5% CO2. Cells (1.25×10^4/ml) were resuspended, and 1 ml/well was used to seed 24 well plates. Twenty-four hours later, PEDF was added to triplicate wells at […] , 0.75, 1 or 10 nM, and the cells were incubated for an additional 24 hours. The percentage of differentiated cells was determined by counting the total number of cells in three non-overlapping 1 mm^2 areas per well.

[5] = system: SK-N-BE(2) tumors; experiment: Differentiation of human neuroblastoma tumors in athymic mice (neurofilament staining); type: in vivo, mouse; conditions: 2 μg PEDF per day intratumoral, 4 days
Description: In vivo experiments were conducted to determine the effect of PEDF on neuroblastoma tumors. […] When the tumors grew to a palpable size (approximately 8 mm in diameter) PEDF treatment was started. A total of 2 μg of purified histidine-tagged PEDF in a volume of 100 μl of phosphate buffered saline was injected into 2-3 sites/tumor each day for 4 consecutive days. On the fifth day, the mice were euthanized by an overdose of metaphane, and the tumors were surgically removed. Tumor tissue was sliced and placed in buffered formalin for at least 24 hours. Tissue was embedded in paraffin and prepared for histologic examination. Sections were stained with an antibody that recognized neurofilament protein (Dako, Carpinteria, Calif.). […] A total of six SK-N-BE(2) tumors were treated with PEDF and 6/6 were moderately to strongly positive for neurofilament staining.

[6] = PEDF 8 nM in pellet, seven days

B1: PEDF: full length pigment epithelium derived growth factor, SEQ ID NO:1; purified from WERI-Rb-27R medium or recombinant histidine-tagged (protein, listed as Homo Sapiens)
chain: MQALVLLLCIGALLGHSSCQNPASPPEEGSPDPDSTGALVEEEDPFFKVPVNKLAAAVSNFGYDLYRVRSSMSPTTNVLLSPLSVATALSALSLGADERTESIIHRALYYDLISSPDIHGTYKELLDTVTAPQKNLKSASRIVFEKKLRIKSSFVAPLEKSYGTRPRVLTGNPRLDLQEINNWVQAQMKGKLARSTKEIPDEISILLLGVAHFKGQWVTKFDSRKTSLEDFYLDEERTVRVPMMSDPKAVLRYGLDSDLSCKIAQLPLTGSMSIIFFLPLKVTQNLTLIEESLTSEFIHDIDRELKTVQAVLTVPKLKLSYEGEVTKSLQEMKLQSLFDSPDFSKITGKPIKLTQVEHRAGFEWNEDGAGTTPSPGLQPAHLTFPLDYHLNQPFIFVLRDTDTGALLFIGKILDPRGP
[1]
  inhibition of migration of non-endothelial cells: did not inhibit the migration
[2]
  migration, percentage of maximal migration: considerably less migration was observed
[3]; Hydron pellets, 7 days, FIGS. 13A and 13B
  effect on neovascularization in the rat cornea: potently inhibited neovascularization
[3]; [6]
  number of corneas with angiogenesis/number of corneas implanted, With bFGF: 0/3
  number of corneas with angiogenesis/number of corneas implanted, Without bFGF: 0/3
[4]
  differentiation of neuroblastoma cells: triggered differentiation of the cells
[5]
  tumors moderately to strongly positive for neurofilament staining / tumors treated: 6/6
